From patent publication US20140213513A1 (Sanofi, priority 2012, published 2014)
*1 amine or outer side, *2 acyl side, *3 side chain or, on linkers, in order; H or OH if unused. Where no end group is shown, it is not given here. Side-chain parts run from the residue outwards. [ ]: non-standard residue; d: D form. The star is where a group is joined. γGlu = O=C(O)[C@H](CCC(=O)[*:2])N[*:1]; Stearoyl = CCCCCCCCCCCCCCCCCC(=O)*; Palmitoyl = CCCCCCCCCCCCCCCC(=O)*; Aib = CC(C)(N)C(=O)O

T1: human GIP receptor (human, UniProt P48546 22-466)
T1 sequence (looked up): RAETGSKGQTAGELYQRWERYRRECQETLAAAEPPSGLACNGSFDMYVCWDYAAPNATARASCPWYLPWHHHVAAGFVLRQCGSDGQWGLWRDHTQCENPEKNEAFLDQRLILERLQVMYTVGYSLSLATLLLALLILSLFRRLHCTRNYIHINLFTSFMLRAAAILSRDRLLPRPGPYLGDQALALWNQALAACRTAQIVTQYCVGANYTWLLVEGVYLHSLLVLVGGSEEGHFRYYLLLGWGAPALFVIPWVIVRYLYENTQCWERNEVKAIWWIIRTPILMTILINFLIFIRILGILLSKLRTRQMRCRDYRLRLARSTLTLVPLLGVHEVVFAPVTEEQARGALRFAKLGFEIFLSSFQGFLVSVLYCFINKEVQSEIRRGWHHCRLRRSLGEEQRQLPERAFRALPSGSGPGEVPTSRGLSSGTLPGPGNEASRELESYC

B1: exendin-4 peptide analogue SEQ ID NO: 11 (peptide)
peptide: Y[Aib]QGTFTSDLSIQK([γGlu-Palmitoyl])EKR[Aib]A[Aib]EFIEWLKNTGPSSGAPPPS-NH2
modifications: N-terminus assumed
SMILES: CCCCCCCCCCCCCCCC(=O)N[C@@H](CCC(=O)NCCCC[C@H](NC(=O)[C@H](CCC(N)=O)NC(=O)[C@@H](NC(=O)[C@H](CO)NC(=O)[C@H](CC(C)C)NC(=O)[C@H](CC(=O)O)NC(=O)[C@H](CO)NC(=O)[C@@H](NC(=O)[C@H](Cc1ccccc1)NC(=O)[C@@H](NC(=O)CNC(=O)[C@H](CCC(N)=O)NC(=O)C(C)(C)NC(=O)[C@@H](N)Cc1ccc(O)cc1)[C@@H](C)O)[C@@H](C)O)[C@@H](C)CC)C(=O)N[C@@H](CCC(=O)O)C(=O)N[C@@H](CCCCN)C(=O)N[C@@H](CCCNC(=N)N)C(=O)NC(C)(C)C(=O)N[C@@H](C)C(=O)NC(C)(C)C(=O)N[C@@H](CCC(=O)O)C(=O)N[C@@H](Cc1ccccc1)C(=O)N[C@H](C(=O)N[C@@H](CCC(=O)O)C(=O)N[C@@H](Cc1c[nH]c2ccccc12)C(=O)N[C@@H](CC(C)C)C(=O)N[C@@H](CCCCN)C(=O)N[C@@H](CC(N)=O)C(=O)N[C@H](C(=O)NCC(=O)N1CCC[C@H]1C(=O)N[C@@H](CO)C(=O)N[C@@H](CO)C(=O)NCC(=O)N[C@@H](C)C(=O)N1CCC[C@H]1C(=O)N1CCC[C@H]1C(=O)N1CCC[C@H]1C(=O)N[C@@H](CO)C(N)=O)[C@@H](C)O)[C@@H](C)CC)C(=O)O
B2: exendin-4 peptide analogue SEQ ID NO: 58 (peptide)
peptide: Y[Aib]EGTFTSDLSIQK([γGlu-Stearoyl])ESKAAHEFIEWLKAGGPSSGAPPPSK-NH2
modifications: N-terminus assumed
SMILES: CCCCCCCCCCCCCCCCCC(=O)N[C@@H](CCC(=O)NCCCC[C@H](NC(=O)[C@H](CCC(N)=O)NC(=O)[C@@H](NC(=O)[C@H](CO)NC(=O)[C@H](CC(C)C)NC(=O)[C@H](CC(=O)O)NC(=O)[C@H](CO)NC(=O)[C@@H](NC(=O)[C@H](Cc1ccccc1)NC(=O)[C@@H](NC(=O)CNC(=O)[C@H](CCC(=O)O)NC(=O)C(C)(C)NC(=O)[C@@H](N)Cc1ccc(O)cc1)[C@@H](C)O)[C@@H](C)O)[C@@H](C)CC)C(=O)N[C@@H](CCC(=O)O)C(=O)N[C@@H](CO)C(=O)N[C@@H](CCCCN)C(=O)N[C@@H](C)C(=O)N[C@@H](C)C(=O)N[C@@H](Cc1c[nH]cn1)C(=O)N[C@@H](CCC(=O)O)C(=O)N[C@@H](Cc1ccccc1)C(=O)N[C@H](C(=O)N[C@@H](CCC(=O)O)C(=O)N[C@@H](Cc1c[nH]c2ccccc12)C(=O)N[C@@H](CC(C)C)C(=O)N[C@@H](CCCCN)C(=O)N[C@@H](C)C(=O)NCC(=O)NCC(=O)N1CCC[C@H]1C(=O)N[C@@H](CO)C(=O)N[C@@H](CO)C(=O)NCC(=O)N[C@@H](C)C(=O)N1CCC[C@H]1C(=O)N1CCC[C@H]1C(=O)N1CCC[C@H]1C(=O)N[C@@H](CO)C(=O)N[C@@H](CCCCN)C(N)=O)[C@@H](C)CC)C(=O)O
B3: exendin-4 peptide analogue SEQ ID NO: 59 (peptide)
peptide: Y[Aib]EGTFTSDLSIQK([γGlu-Palmitoyl])EKRAAHEFIEWLKNTGPSSGAPPPS-NH2
modifications: N-terminus assumed
SMILES: CCCCCCCCCCCCCCCC(=O)N[C@@H](CCC(=O)NCCCC[C@H](NC(=O)[C@H](CCC(N)=O)NC(=O)[C@@H](NC(=O)[C@H](CO)NC(=O)[C@H](CC(C)C)NC(=O)[C@H](CC(=O)O)NC(=O)[C@H](CO)NC(=O)[C@@H](NC(=O)[C@H](Cc1ccccc1)NC(=O)[C@@H](NC(=O)CNC(=O)[C@H](CCC(=O)O)NC(=O)C(C)(C)NC(=O)[C@@H](N)Cc1ccc(O)cc1)[C@@H](C)O)[C@@H](C)O)[C@@H](C)CC)C(=O)N[C@@H](CCC(=O)O)C(=O)N[C@@H](CCCCN)C(=O)N[C@@H](CCCNC(=N)N)C(=O)N[C@@H](C)C(=O)N[C@@H](C)C(=O)N[C@@H](Cc1c[nH]cn1)C(=O)N[C@@H](CCC(=O)O)C(=O)N[C@@H](Cc1ccccc1)C(=O)N[C@H](C(=O)N[C@@H](CCC(=O)O)C(=O)N[C@@H](Cc1c[nH]c2ccccc12)C(=O)N[C@@H](CC(C)C)C(=O)N[C@@H](CCCCN)C(=O)N[C@@H](CC(N)=O)C(=O)N[C@H](C(=O)NCC(=O)N1CCC[C@H]1C(=O)N[C@@H](CO)C(=O)N[C@@H](CO)C(=O)NCC(=O)N[C@@H](C)C(=O)N1CCC[C@H]1C(=O)N1CCC[C@H]1C(=O)N1CCC[C@H]1C(=O)N[C@@H](CO)C(N)=O)[C@@H](C)O)[C@@H](C)CC)C(=O)O
B4: exendin-4 peptide analogue SEQ ID NO: 60 (peptide)
peptide: Y[Aib]QGTFTSDLSKQK([γGlu-Stearoyl])DEEAARLFIEWLKAGGPSSGAPPPS-NH2
modifications: N-terminus assumed
SMILES: CCCCCCCCCCCCCCCCCC(=O)N[C@@H](CCC(=O)NCCCC[C@H](NC(=O)[C@H](CCC(N)=O)NC(=O)[C@H](CCCCN)NC(=O)[C@H](CO)NC(=O)[C@H](CC(C)C)NC(=O)[C@H](CC(=O)O)NC(=O)[C@H](CO)NC(=O)[C@@H](NC(=O)[C@H](Cc1ccccc1)NC(=O)[C@@H](NC(=O)CNC(=O)[C@H](CCC(N)=O)NC(=O)C(C)(C)NC(=O)[C@@H](N)Cc1ccc(O)cc1)[C@@H](C)O)[C@@H](C)O)C(=O)N[C@@H](CC(=O)O)C(=O)N[C@@H](CCC(=O)O)C(=O)N[C@@H](CCC(=O)O)C(=O)N[C@@H](C)C(=O)N[C@@H](C)C(=O)N[C@@H](CCCNC(=N)N)C(=O)N[C@@H](CC(C)C)C(=O)N[C@@H](Cc1ccccc1)C(=O)N[C@H](C(=O)N[C@@H](CCC(=O)O)C(=O)N[C@@H](Cc1c[nH]c2ccccc12)C(=O)N[C@@H](CC(C)C)C(=O)N[C@@H](CCCCN)C(=O)N[C@@H](C)C(=O)NCC(=O)NCC(=O)N1CCC[C@H]1C(=O)N[C@@H](CO)C(=O)N[C@@H](CO)C(=O)NCC(=O)N[C@@H](C)C(=O)N1CCC[C@H]1C(=O)N1CCC[C@H]1C(=O)N1CCC[C@H]1C(=O)N[C@@H](CO)C(N)=O)[C@@H](C)CC)C(=O)O
B5: exendin-4 peptide analogue SEQ ID NO: 61 (peptide)
peptide: Y[Aib]QGTFTSDLSKQK([γGlu-Palmitoyl])DSKAAQDFIEWLKAGGPSSGAPPPS-NH2
modifications: N-terminus assumed
SMILES: CCCCCCCCCCCCCCCC(=O)N[C@@H](CCC(=O)NCCCC[C@H](NC(=O)[C@H](CCC(N)=O)NC(=O)[C@H](CCCCN)NC(=O)[C@H](CO)NC(=O)[C@H](CC(C)C)NC(=O)[C@H](CC(=O)O)NC(=O)[C@H](CO)NC(=O)[C@@H](NC(=O)[C@H](Cc1ccccc1)NC(=O)[C@@H](NC(=O)CNC(=O)[C@H](CCC(N)=O)NC(=O)C(C)(C)NC(=O)[C@@H](N)Cc1ccc(O)cc1)[C@@H](C)O)[C@@H](C)O)C(=O)N[C@@H](CC(=O)O)C(=O)N[C@@H](CO)C(=O)N[C@@H](CCCCN)C(=O)N[C@@H](C)C(=O)N[C@@H](C)C(=O)N[C@@H](CCC(N)=O)C(=O)N[C@@H](CC(=O)O)C(=O)N[C@@H](Cc1ccccc1)C(=O)N[C@H](C(=O)N[C@@H](CCC(=O)O)C(=O)N[C@@H](Cc1c[nH]c2ccccc12)C(=O)N[C@@H](CC(C)C)C(=O)N[C@@H](CCCCN)C(=O)N[C@@H](C)C(=O)NCC(=O)NCC(=O)N1CCC[C@H]1C(=O)N[C@@H](CO)C(=O)N[C@@H](CO)C(=O)NCC(=O)N[C@@H](C)C(=O)N1CCC[C@H]1C(=O)N1CCC[C@H]1C(=O)N1CCC[C@H]1C(=O)N[C@@H](CO)C(N)=O)[C@@H](C)CC)C(=O)O
B6: exendin-4 peptide analogue SEQ ID NO: 57 (peptide)
peptide: Y[Aib]EGTFTSDLSIQK([γGlu-Palmitoyl])EERAAHEFIEWLKR[Aib]GPSSGAPPPSK-NH2
modifications: N-terminus assumed
SMILES: CCCCCCCCCCCCCCCC(=O)N[C@@H](CCC(=O)NCCCC[C@H](NC(=O)[C@H](CCC(N)=O)NC(=O)[C@@H](NC(=O)[C@H](CO)NC(=O)[C@H](CC(C)C)NC(=O)[C@H](CC(=O)O)NC(=O)[C@H](CO)NC(=O)[C@@H](NC(=O)[C@H](Cc1ccccc1)NC(=O)[C@@H](NC(=O)CNC(=O)[C@H](CCC(=O)O)NC(=O)C(C)(C)NC(=O)[C@@H](N)Cc1ccc(O)cc1)[C@@H](C)O)[C@@H](C)O)[C@@H](C)CC)C(=O)N[C@@H](CCC(=O)O)C(=O)N[C@@H](CCC(=O)O)C(=O)N[C@@H](CCCNC(=N)N)C(=O)N[C@@H](C)C(=O)N[C@@H](C)C(=O)N[C@@H](Cc1c[nH]cn1)C(=O)N[C@@H](CCC(=O)O)C(=O)N[C@@H](Cc1ccccc1)C(=O)N[C@H](C(=O)N[C@@H](CCC(=O)O)C(=O)N[C@@H](Cc1c[nH]c2ccccc12)C(=O)N[C@@H](CC(C)C)C(=O)N[C@@H](CCCCN)C(=O)N[C@@H](CCCNC(=N)N)C(=O)NC(C)(C)C(=O)NCC(=O)N1CCC[C@H]1C(=O)N[C@@H](CO)C(=O)N[C@@H](CO)C(=O)NCC(=O)N[C@@H](C)C(=O)N1CCC[C@H]1C(=O)N1CCC[C@H]1C(=O)N1CCC[C@H]1C(=O)N[C@@H](CO)C(=O)N[C@@H](CCCCN)C(N)=O)[C@@H](C)CC)C(=O)O

These binders were tested against human glucagon receptor (human, UniProt P47871 26-477) (assay: cell-based or functional assay).
human glucagon receptor, sequence (P47871 26-477): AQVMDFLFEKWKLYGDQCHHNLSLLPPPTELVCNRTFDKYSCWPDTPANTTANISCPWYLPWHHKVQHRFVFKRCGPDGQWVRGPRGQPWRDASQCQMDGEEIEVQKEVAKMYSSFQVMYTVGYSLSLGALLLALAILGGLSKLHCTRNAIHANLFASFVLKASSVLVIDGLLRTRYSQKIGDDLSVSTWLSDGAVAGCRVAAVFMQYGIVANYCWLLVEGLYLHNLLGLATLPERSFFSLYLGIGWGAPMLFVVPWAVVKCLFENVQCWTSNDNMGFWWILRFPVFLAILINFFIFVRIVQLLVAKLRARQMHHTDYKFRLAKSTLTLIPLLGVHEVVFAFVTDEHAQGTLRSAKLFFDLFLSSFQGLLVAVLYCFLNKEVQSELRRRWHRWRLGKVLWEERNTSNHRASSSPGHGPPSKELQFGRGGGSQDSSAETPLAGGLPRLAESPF
For B1, the “EC50 hGLUC R” value was 0.0669 nM.
In the case of B2, the “EC50 hGLUC R” value is reported as 16 nM.
With B3 the “EC50 hGLUC R” value was 12.3 nM.
With B4 the “EC50 hGLUC R” value was 0.0091 nM.
B5 was tested, and the “EC50 hGLUC R” value was 0.0061 nM.
B6 was tested, and the “EC50 hGLUC R” value was 14.4 nM.

What follows are binders tested against T1, human GIP receptor (assay: cell-based or functional assay).
For B1, the “EC50 hGIP R” value was 0.0144 nM.
With B2 the “EC50 hGIP R” value was 0.0086 nM.
B3 was tested, and the “EC50 hGIP R” value was 0.0175 nM.
In the case of B4, the “EC50 hGIP R” value is reported as 0.0168 nM.
B5 was tested, and the “EC50 hGIP R” value was 0.0214 nM.
B6 was tested, and the “EC50 hGIP R” value was 0.0157 nM.

What follows are binders tested against human GLP-1 receptor (human, UniProt P43220 24-463) (assay: cell-based or functional assay).
In the case of B1, the “EC50 hGLP-1 R” value is reported as 0.0038 nM.
B2 was tested, and the “EC50 hGLP-1 R” value was 0.0125 nM.
B3 was tested, and the “EC50 hGLP-1 R” value was 0.0075 nM.
With B4 the “EC50 hGLP-1 R” value was 0.0053 nM.
B5 was tested, and the “EC50 hGLP-1 R” value was 0.0024 nM.
For B6, the “EC50 hGLP-1 R” value was 0.0071 nM.
